Several values for one entry are separate records, joined by “and”; a condition that tells them apart may be missing. Identical values can stand only once.
Columns and labels:
Format in all cases: in vivo, Sprague-Dawley (SD) rats
[1] = Body weight of MCAO model animals (Example 6); conditions: individual animal
Method: • Animals measured: all the surviving experimental animals planned to be measured; • Measurement time: the body weight was measured at least twice during the adaptation period, once 24 hours before surgery for grouping, and once 24 hours after surgery.
Cerebral ischemia-reperfusion is an acute injury model, wherein the weight of experimental animals will drop dramatically after MCAO modeling. Thus, the weight of experimental animals is one of the most basic sensitive parameters to comprehensively reflect the health status of animals. In this experiment, the body weight of all the animals was monitored on the day before the surgery and on the first day after the surgery, and the changes of animal's body weight were observed and recorded.

[2] = system: MCAO ischemia-reperfusion model; assay: MCAO ischemia-reperfusion model, rat Neurological Severity Scores (NSS) (Example 6)
Source text: 3) Cerebral ischemia reperfusion surgery: • A. Isolating and exposing blood vessels: the skin of the surgical area was shaved, and the rats were placed under a surgical microscope. The skin of the rat was cut along the midline with ophthalmic scissors, with a cut of about 2 cm length. Through the right neck of the rat, the muscle tissue of the right neck was bluntly isolated and opened with a microforcep to expose the right common carotid artery (CCA), and then isolated upward along the common carotid artery to further expose the external carotid artery (ECA) and internal carotid artery (ICA); • B. The proximal end of CCA was ligated and the CCA at the Y-shaped branch was temporarily clamped; the ligated site of CCA to the clamped site of ICA were threaded, tied with a loose knot (pre-ligation) for later use, and a small incision at the proximal end of the pre-ligation was made; • C. Inserting the suture emboli: Suture emboli No. 4-0 was inserted through the incision of CCA, pushed slowly and gently into the internal carotid artery, and stopped temporarily at the artery clamp of ICA. The pre-ligation thread was tied tightly (to avoid severe bleeding when pushing the suture emboli), then the artery clamp that blocked the blood flow of ICA was removed, and the suture emboli was immediately pushed into ICA until entering into the cranium. One should be careful not to insert the suture emboli into the pterygopalatine artery, which is another branch of the internal carotid artery and is one of the extra-cranial branches of ICA. […] Then the insertion was terminated and the time was recorded. […] Note: The first digit of the animal number represents the group (1, 2, 3 and 4 represent the model control group, S3 group, t-PA group and S3+t-PA group respectively), and the second letter represents the gender (M is male), the last three digits represent the animal serial number. a means giving 3 mL S3 and 3 mL sterile water for injection, b means giving 3 mL t-PA and 3 mL sterile water for injection, c means giving 3 mL S3 and 3 mL t-PA. • Route of administration: tail vein injection; • Administration time: immediately after ischemia-reperfusion (within 5 minutes); • Dosing frequency and cycle: 1 dose; • The day of modeling was defined as D0, and the day before was defined as D-1. • Measurement time: 24 hours before the modeling, 24 and 72 hours after the modeling; • Animals measured: all the surviving animals planned to be measured; • Measurement method: a motor function test, sensory test, balance test, and reflex and abnormal behavior test were performed on animals, according to the rat for details. […]

[3] = system: MCAO ischemia-reperfusion model; assay: MCAO ischemia-reperfusion model, TTC staining, cerebral infarct area and inhibition rate (Example 6)
[4] = 3 mg/kg i.v. immediately after reperfusion, 24 h after surgery, group mean ± SD

B1: t-PA: recombinant human TNK tissue-type plasminogen activator for injection (Mingfule) purchased from Guangzhou Mingkang Bioengineering Co., Ltd. (protein, UniProt P00750 36-562, looked up, variant T103N N117Q K296A H297A R298A R299A)
Tissue-type plasminogen …: SYQVICRDEKTQMIYQQHQSWLRPVLRSNRVEYCWCNSGRAQCHSVPVKSCSEPRCFNGGTCQQALYFSDFVCQCPEGFAGKCCEIDTRATCYEDQGISYRGNWSTAESGAECTNWQSSALAQKPYSGRRPDAIRLGLGNHNYCRNPDRDSKPWCYVFKAGKYSSEFCSTPACSEGNSDCYFGNGSAYRGTHSLTESGASCLPWNSMILIGKVYTAQNPSAQALGLGKHNYCRNPDGDAKPWCHVLKNRRLTWEYCDVPSCSTCGLRQYSQPQFRIKGGLFADIASHPWQAAIFAAAAASPGERFLCGGILISSCWILSAAHCFQERFPPHHLTVILGRTYRVVPGEEEQKFEVEKYIVHKEFDDDTYDNDIALLQLKSDSSRCAQESSVVRTVCLPPADLQLPDWTECELSGYGKHEALSPFYSERLKEAHVRLYPSSRCTSQHLLNRTVTDNMLCAGDTRSGGPQANLHDACQGDSGGPLVCLNDGRMTLVGIISWGLGCGQKDVPGVYTKVTNYLDWIRDNMRP
modifications: tenecteplase (TNK-tPA), Mingfule
[1]; after surgery and administration
  Body weight D 2, individual animals: 230.57 g and 203.58 g and 203.63 g and 199.35 g and 205.31 g and 223.28 g and 223.30 g and 217.60 g and 200.68 g
[1]; before surgery (baseline)
  Body weight D 0, individual animals: 289.15 g and 246.68 g and 263.91 g and 259.23 g and 273.31 g and 281.77 g and 281.59 g and 273.94 g and 251.02 g
[2]; 3 mg/kg i.v. immediately after reperfusion, after surgery, individual animal
  NSS D2, individual animals: 7 (2×) and 8 and 7.5 (2×) and 6.5 (2×) and 6 and 5.5
[2]; 3 mg/kg i.v. immediately after reperfusion, one day after surgery, group mean ± SD
  NSS D 2: 6.83±0.75
[2]; one day after surgery, relative to model control group, group mean ± SD
  NSS reduction rate: 11.83±9.62%
[2]; relative to model control group, individual animal
  NSS reduction rate, individual animals: 9.68% (2×) and −3.23% and 3.23% (2×) and 16.13% (2×) and 22.58% and 29.03%
[3]; 3 mg/kg i.v. immediately after reperfusion, 24 h after modeling, individual animal
  Infarct area, individual animals: 19.069% and 18.394% and 16.546% and 21.064% and 19.195% and 18.719% and 16.209% and 18.356% and 19.147%
[3]; [4]
  Infarct area weight: 0.26 ± 0.022 g
  infarct area: 18.522±1.372%
[3]; 3 mg/kg i.v. immediately after reperfusion, 24 h after surgery, vs model control, group mean ± SD
  Cerebral infarct inhibition rate: 22.802±5.719%
[3]; 24 h after modeling, individual animal
  Weight of infarct area, individual animals: 0.291 g and 0.268 g and 0.229 g and 0.289 g and 0.272 g and 0.260 g and 0.230 g and 0.239 g and 0.265 g
[3]; vs model control group, individual animal
  Cerebral infarct inhibition rate, individual animals: 20.521% and 23.336% and 31.037% and 12.207% and 19.996% and 21.984% and 32.445% and 23.493% and 20.196%
